Experimental data: patent US20180311311A1 (Pieris, published 2018)
Residue numbers refer to the chain shown, from its start.

Assays:
[1] = biological target: T1, Hepcidin-25 containing a C-terminal biotin group (human, C-terminal biotin group); experiment: solution competition ECL assay: 25 pM Hepcidin-25-C-bio pre-incubated with the conjugate, remaining free Hepcidin-25-C-bio captured on plate-coated antibody 12B9; STDV 14 pM, mean of n=5
T1 construct: also called Hepcidin-25-C-bio; biotinylated hepcidin
T1 peptide: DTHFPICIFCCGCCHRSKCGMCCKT
Description: (§1) The binding affinity of the hNGAL mutein having the sequence of SEQ ID NO: 2 was compared to the binding affinity of the hNGAL mutein having the sequence of SEQ ID NO: 1 linked to PEG12, PEG20, PEG30 or PEG40 in a solution competition electrochemiluminescence (ECL) assay. A defined molar concentration of Hepcidin-25 containing a C-terminal biotin group (25 pM, Hepcidin-25-C-bio) was incubated with different concentrations of the lipocalin muteins for 30 min. at room temperature. The solution was then transferred to an ECL plate coated with the human hepcidin specific monoclonal antibody 12B9 as described herein (and disclosed in WO2008/097461) to measure the remaining concentration of free Hepcidin-25-C-bio in the solution. 12B9-bound Hepcidin-25-C-bio was detected via the Streptavidin sulfotag detection reagent on the Meso-Scale ECL platform and the concentration determined via a Hepcidin-25-C-bio standard curve. […] The assay, for example, was able to distinguish the binding affinity of one lipocalin mutein (SEQ ID NO: 2) from the binding affinity of another lipocalin mutein (SEQ ID NO: 3). Furthermore, it allowed a direct comparison of different high affinities of the lipocalin muteins as well as conjugates having PEG chains of different length.

[2] = biological target: T1, Hepcidin-25 containing a C-terminal …; experiment: solution competition ECL assay: 25 pM Hepcidin-25-C-bio pre-incubated with the conjugate, remaining free Hepcidin-25-C-bio captured on plate-coated antibody 12B9; STDV 11 pM, mean of n=5
Description: as §1

Cynomolgus hepcidin 25 [3] = biological target: T2, Cynomolgus hepcidin 25 (Cynomolgus monkey, UniProt A7XEI3 60-84, not fully specified); experiment: surface plasmon resonance
T2 construct: mature; also called Cynomolgous hepcidin 25
T2 peptide: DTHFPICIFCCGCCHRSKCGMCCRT

[4] = biological target: T1, Hepcidin-25 containing a C-terminal …; experiment: solution competition ECL assay: 25 pM Hepcidin-25-C-bio pre-incubated with the conjugate, remaining free Hepcidin-25-C-bio captured on plate-coated antibody 12B9; STDV 6 pM, mean of n=6
Description: as §1

[5] = biological target: T1, Hepcidin-25 containing a C-terminal …; experiment: solution competition ECL assay: 25 pM Hepcidin-25-C-bio pre-incubated with the conjugate, remaining free Hepcidin-25-C-bio captured on plate-coated antibody 12B9; STDV 10 pM, mean of n=5
Description: as §1

[6] = biological target: T3, ß-defensin (Sigma Aldrich, D9565) (UniProt P60022 33-68); experiment: SPR (Biacore T200), mutein immobilized on CM5 chip, analyte in solution
T3 construct: also called mammalian antimicrobial 36 amino acid peptide ß-defensin
T3 peptide (looked up): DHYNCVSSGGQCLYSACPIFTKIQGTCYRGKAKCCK
Description: (§2) The affinity and binding specificity of a lipocalin mutein was determined in a kinetic assay using surface plasmon resonance. The hepcidin-specific lipocalin mutein having the sequence of SEQ ID NO: 1 and the hNGAL lipocalin having the sequence of SEQ ID NO: 4 were immobilized to a level of 750-1100 resonance units (RU) on a CM5 sensor chip (GE Healthcare, BR-1005-30) using an amine coupling kit (GE Healthcare, BR-1000-50). Residual activated groups were saturated with ethanolamine. The reference channels were treated with EDC/NHS following ethanolamine (blank immobilization). Dilutions of Hepcidin-25 (Peptallova), Fe-enterobactin (Genaxxon Bioscience, S4035.0001), ß-defensin (Sigma Aldrich, D9565), VEGF₈₋₁₀₉ (Pieris, truncated VEGF) and HSA (Sigma Life sciences, A1653) in HBS-EP+ buffer (GE Healthcare, BR-1006-69) were applied to the prepared chip surfaces. The following parameters were used for the binding assay: contact time 60 s, dissociation time 600 s, flow rate 30 μL/min. All measurements were performed on a Biacore T200 instrument (GE Healthcare) at 25° C. […] Prior to the protein measurements three startup cycles were performed for conditioning purposes. Data were evaluated with Biacore T200 Evaluation software (V 1.0). Double referencing was used. The 1:1 Binding model was used to fit the raw data. No binding to the reference channel was detected for all of the targets. […] The bacterial siderophor Fe-enterobactin was selected for this analysis as it constitutes one of the natural ligands of the lipocalin that the lipocalin mutein was derived from.

[7] = biological target: T4, VEGF8-109 (Pieris, truncated VEGF) (UniProt P15692 214-315); experiment: as above
T4 construct: range 8-109; By custom it is counted on mature VEGF-A, not on the precursor
T4 sequence (looked up): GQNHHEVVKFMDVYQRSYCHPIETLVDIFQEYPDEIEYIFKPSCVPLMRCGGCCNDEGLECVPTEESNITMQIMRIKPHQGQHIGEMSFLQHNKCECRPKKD
Description: as §2

[8] = biological target: T5, HSA (Sigma Life sciences, A1653) (human, UniProt P02768 25-609); experiment: as above
T5 construct: Printed only as the abbreviation HSA
Description: as §2

Hepcidin-25 [9] = biological target: T6, Hepcidin-25 (human); experiment: surface plasmon resonance (Biacore T200, 25 °C), mutein amine-coupled to a CM5 chip, Hepcidin-25 as analyte, 1:1 binding model; N=6
T6 construct: also called Hepc25; mature form of human hepcidin
T6 peptide: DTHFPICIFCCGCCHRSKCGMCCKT

Hepcidin-25 [10] = biological target: T6, Hepcidin-25; experiment: surface plasmon resonance (Biacore), Hepcidin-25 as analyte, tested side by side with cynomolgus hepcidin 25 in the same assay format; N=3
Cynomolgus hepcidin 25 [11] = biological target: T2, Cynomolgus hepcidin 25; experiment: surface plasmon resonance (Biacore), cynomolgus hepcidin 25 as analyte, tested side by side with Hepcidin-25 in the same assay format; N=3
[12] = biological target: T1, Hepcidin-25 containing a C-terminal …; experiment: solution competition ECL assay: 25 pM Hepcidin-25-C-bio pre-incubated with the mutein, remaining free Hepcidin-25-C-bio captured on plate-coated antibody 12B9; STDV 23 pM, mean of n=6
Description: as §1

[13] = biological target: T3, ß-defensin (Sigma Aldrich, D9565); experiment: SPR (Biacore T200), hNGAL immobilized on CM5 chip, analyte in solution
Description: (§3) The reference channels were treated with EDC/NHS following ethanolamine (blank immobilization). Dilutions of Hepcidin-25 (Peptallova), Fe-enterobactin (Genaxxon Bioscience, S4035.0001), ß-defensin (Sigma Aldrich, D9565), VEGF₈₋₁₀₉ (Pieris, truncated VEGF) and HSA (Sigma Life sciences, A1653) in HBS-EP+ buffer (GE Healthcare, BR-1006-69) were applied to the prepared chip surfaces. The following parameters were used for the binding assay: contact time 60 s, dissociation time 600 s, flow rate 30 μL/min. All measurements were performed on a Biacore T200 instrument (GE Healthcare) at 25° C. […] Prior to the protein measurements three startup cycles were performed for conditioning purposes. Data were evaluated with Biacore T200 Evaluation software (V 1.0). Double referencing was used. The 1:1 Binding model was used to fit the raw data. No binding to the reference channel was detected for all of the targets. […] The bacterial siderophor Fe-enterobactin was selected for this analysis as it constitutes one of the natural ligands of the lipocalin that the lipocalin mutein was derived from. […] HSA and VEGF were used as example of non-related proteins. The hNGAL lipocalin, immobilized in an identical fashion on a CM5 chip compared to the lipocalin mutein was used as positive control for the Fe-enterobactin analyte. As described in the literature, the hNGAL lipocalin bound Fe-enterobactin with subnanomolar affinity, whereas none of the other analytes including hepcidin were bound.

[14] = biological target: T4, VEGF8-109 (Pieris, truncated VEGF); experiment: as above
Description: as §3

[15] = biological target: T5, HSA (Sigma Life sciences, A1653); experiment: as above
Description: as §3

Hepcidin-25 [16] = biological target: T6, Hepcidin-25; experiment: as above
Description: as §3

T5 sequence (P02768 25-609): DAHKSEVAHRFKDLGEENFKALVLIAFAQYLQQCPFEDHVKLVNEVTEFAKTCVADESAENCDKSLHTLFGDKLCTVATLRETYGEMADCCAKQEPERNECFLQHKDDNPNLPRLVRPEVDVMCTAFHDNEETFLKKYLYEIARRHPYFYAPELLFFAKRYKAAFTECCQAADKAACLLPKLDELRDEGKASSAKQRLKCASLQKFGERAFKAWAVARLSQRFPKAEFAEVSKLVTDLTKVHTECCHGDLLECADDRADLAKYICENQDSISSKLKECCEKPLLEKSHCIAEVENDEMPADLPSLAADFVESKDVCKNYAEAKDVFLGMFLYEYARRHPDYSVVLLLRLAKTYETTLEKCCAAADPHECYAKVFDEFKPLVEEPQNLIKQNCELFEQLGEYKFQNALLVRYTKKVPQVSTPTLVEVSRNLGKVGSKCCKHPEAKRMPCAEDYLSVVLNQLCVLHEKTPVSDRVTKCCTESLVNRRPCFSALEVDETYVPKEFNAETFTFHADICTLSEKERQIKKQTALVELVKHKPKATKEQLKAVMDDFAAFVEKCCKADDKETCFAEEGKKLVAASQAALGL

B1: hNGAL mutein having the sequence of SEQ ID NO: 1 linked to PEG12 (designed binder)
chain: QDSTSDLIPAPPLSKVPLQQNFQDNQFHGKWYVVGLAGNEVLREDKDPMKMWATIYELKEDKSYNVTIVMPLAEKCEYLFQTFVPGCQPGEFTLGGIKSGPGRTSGLVRVVSTNYNQHAMVFFKVVWQNREVFWVTLYGRTKELTSELKENFIRFSKSLGLPENHIVFPVPIDQCIDG
modifications: linear PEG12 (PEG-maleimide) on the free Cys at position 87
notes: also called PEG12 conjugate
[1]
  IC50: 0.048 nM

B2: hNGAL mutein having the sequence of SEQ ID NO: 1 linked to PEG20 (designed binder)
chain: B1 chain
modifications: linear PEG20 (PEG-maleimide) on the free Cys at position 87
notes: also called PEG20 conjugate
[2]
  IC50: 0.047 nM

B3: hNGAL mutein having the sequence of SEQ ID NO: 1 linked to PEG30 (designed binder)
chain: B1 chain
modifications: linear PEG30 (PEG-maleimide) on the free Cys at position 87
notes: also called PEG30 conjugate; lipocalin-mutein-PEG30 conjugate
Cynomolgus hepcidin 25 [3]
  Kd: 0.066 nM
[4]
  IC50: 0.058 nM

B4: hNGAL mutein having the sequence of SEQ ID NO: 1 linked to PEG40 (designed binder)
chain: B1 chain
modifications: branched PEG40 (PEG-maleimide) on the free Cys at position 87
notes: also called PEG40 conjugate
Cynomolgus hepcidin 25 [3]
  Kd: 0.066 nM
  koff: 0.000245 s⁻¹
  kon: 3.74e+06 M⁻¹ s⁻¹
[5]
  IC50: 0.054 nM

B5: hepcidin-specific lipocalin mutein (hNGAL mutein) having the sequence of SEQ ID NO: 1 (designed binder)
chain: B1 chain
notes: also called the lipocalin mutein; hNGAL mutein having a free cysteine residue at amino acid position 87
[6]
  binding result: no binding
[7]
  binding result: no binding
[8]
  binding result: no binding
Hepcidin-25 [9]
  Kd: 0.07 nM
  koff: 0.0002 s⁻¹
  kon: 3.8e+06 M⁻¹ s⁻¹
Hepcidin-25 [10]
  Kd: 0.1 nM
Cynomolgus hepcidin 25 [11]
  Kd: 0.07 nM

B6: hNGAL mutein having the sequence of SEQ ID NO: 2 (designed binder)
chain: B1 chain with C87S
notes: Non-PEGylated mutein with serine at position 87
[12]
  IC50: 0.056 nM

B7: hNGAL lipocalin having the sequence of SEQ ID NO: 4 (other)
chain: QDSTSDLIPAPPLSKVPLQQNFQDNQFHGKWYVVGLAGNAILREDKDPQKMYATIYELKEDKSYNVTSVLFRKKKCDYWIRTFVPGSQPGEFTLGNIKSYPGLTSYLVRVVSTNYNQHAMVFFKKVSQNREYFKITLYGRTKELTSELKENFIRFSKSLGLPENHIVFPVPIDQCIDG
notes: also called human neutrophil gelatinase-associated lipocalin; lipocalin 2
[13]
  binding result: no binding
[14]
  binding result: no binding
[15]
  binding result: no binding
Hepcidin-25 [16]
  binding result: no binding
